The target in assay [1] is T1, mutant W4.64A LPA3 receptor (Homo sapiens, UniProt Q9UBY5, W167A).
T1 construct: expressed in transfected cells; host or cells: B103 rat neuroblastoma cells
T1 sequence (Q9UBY5 1-353 W167A): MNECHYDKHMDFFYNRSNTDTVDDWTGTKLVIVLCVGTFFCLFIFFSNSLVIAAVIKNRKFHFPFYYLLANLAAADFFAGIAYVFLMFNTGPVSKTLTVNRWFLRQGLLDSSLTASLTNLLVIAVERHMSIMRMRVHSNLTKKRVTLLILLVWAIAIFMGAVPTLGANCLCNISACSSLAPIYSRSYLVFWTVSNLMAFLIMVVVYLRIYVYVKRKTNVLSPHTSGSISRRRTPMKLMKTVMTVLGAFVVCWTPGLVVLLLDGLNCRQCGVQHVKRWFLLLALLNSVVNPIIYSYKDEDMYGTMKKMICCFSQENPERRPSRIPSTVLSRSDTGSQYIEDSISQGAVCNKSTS
The experiment in a line: Intracellular Ca2+ in B103 cells with mutant W4.64A LPA3 receptor. The note with it: W4.64A LPA3 receptor-transfected B103 cells. The format is cell-based. An excerpt: That is, LPA receptors have specific amino acid residues, known as binding sites, which are responsible for interaction with LPA, and the binding of LPA to the specific amino acids starts to exert the function. This Example was configured to examine a change in the gintonin-induced intracellular calcium increase through LPA receptor activation in LPA3 receptor-expressing cells when specific amino acids of the LPA binding site in LPA receptors were mutated.
To this end, a mutant LPA receptor in which Arg3.28, known as a common LPA binding site of LPA1-LPA3 receptors, was mutated as Arg3.28Ala (that is, Arg is substituted by Ala; R3.28A) or Trp4.64, known as an LPA-binding site of LPA3 receptor was mutated as Trp4.64Ala (that is, Tip is substituted by Ala; W4.64A) (Valentine et al., J. Biol. Chem. 283, 12175-12187, 2008) was transfected to B103 cells which were then tested for the action of gintonin, in comparison with cells transfected with the wild-type. […] From the result, it is henceforth understood that the gintonin-triggered LPA receptor activation is achieved by interaction with the LPA binding sites of LPA receptors and that gintonin occupies the LPA binding sites to activate LPA receptors.

The subject of a further assay is mice. The experiment in a line: Passive avoidance test, scopolamine-caused long-term memory impairment. It is filed as in vivo, mouse. As to the method: ICR male mice (25-28 g), purchased from Oriental Bio (Seoul, Korea), were bred according to the guideline of the Institutional Animal Care and Use Committee of Konkuk University, and subjected to passive avoidance test to examine memory maintenance impairment and the protection of gintonin against memory impairment according to the method of Yang et al. (Yang et al., Biol Pharm Bull 32, 1710-1715, 2009).
A passive avoidance test was performed in a training chamber which was divided into two compartments (20×20×20 cm in size, each) separated by an automatically moving guillotine door (5×5 cm): one compartment was lighted while the other remained dark where metal rods installed in a lattice pattern on the bottom so as to deliver an electrical foot shock (Gemini Avoidance System, San Diego, USA).
For an acquisition trial, a mouse was first placed in the lighted compartment, facing away from the dark compartment and allowed to explore for 10 sec. After 10 sec, the guillotine door was opened and the mouse was allowed to explore freely. When the mouse entered the dark compartment with all four paws according to its habit, the guillotine door was closed, and a footshock (0.5 mA, 3 sec duration) was delivered. The latency time to enter the dark compartment was recorded (from the time the door was lifted). 120 min before experimentation, gintonin (25, 50, 100 mg/kg, p.o) was administered while tacrine (10 mg/kg, p.o) was used as a positive control. Memory impairment was induced by injecting scopolamine (0.9 mg/kg, i.p.) 30 min after gintonin or tacrine administration (Araujo et al., Prog Neuropsycopharmcol Biol Psychiatry 29, 411-422, 2005). For a negative control, a physiological saline was used.
24 Hours after the learning session, an experiment was performed without injecting gintonin. The mouse was positioned again in the lighted compartment. After 10 sec of acclimation, the latency time to enter the dark compartment was recorded (from the time the door was lifted).

The test system of assay [2] is HUVECs. Briefly: HUVEC proliferation, BrDU incorporation ELISA. The format is cell-based, human. As to conditions: gintonin 24 hrs. As to the method:
In this Example, gintonin was examined for effect on cell growth. In this regard, HUVECs (human umbilical vein endothelial cells) were cultured with BrDU in the presence of gintonin, and analyzed for relative BrDU content by BrDU assay (Won et al., J Pharmacol Sci 108, 372-379, 2008; Chen et al., Cell Physiol Biochem 22, 307-314, 2008) using a BrDU cell proliferation ELISA kit (Roche, Germany).
Briefly, cells were seeded at a density of 3×10^3 cells/well into 96-well plates one day before treatment with gintonin. After 24 hrs of incubation, the cells were cultured for 6 hrs in a fresh M199 medium supplemented with […]. Again, the medium was changed to a fresh M199 medium supplemented with […], after which the cells were incubated with gintonin for 24 hrs. For an additional 24 hrs, the cells were incubated with a BrDU labeling reagent. After medium was removed, the cells were washed with 10% FBS-supplemented M199, fixed with a fixative, and quantitatively analyzed for relative intracellular BrDU content using an anti-BrDU-peroxidase antibody and a luminometer (Veritas, Turner Biosystems, USA).
A general note: ELISA stands for enzyme-linked immunosorbent assay.

The subject of assay [3] is HUVECs. Briefly: HUVEC migration, Boyden chamber. The format is cell-based, human. The note with it: 70~80 min, 37° C. How it is done: To measure the effect of gintonin on cell migration, a Boyden chamber (Neuro Probe Inc., Gaithersburg, Md., USA) assay was employed (Kim et al. Biol Pharm Bull 30: 1674-1679, 2007; Lee et al. Am J Physiol Cell Physiol 278:C612-C618, 2000).
In the Boyden chamber (48 wells) of two compartments separated by a collagen-coated polycarbonate microporous membrane (8-μm pores), gintonin in M199 (0.1% BSA contained) was placed onto the wells of lower compartment while a HUVEC suspension was added to the wells of the upper compartment (5×10^4 cells/well). During incubation at 37° C. for 70˜80 min, the cells were allowed to migrate through the membrane into the lower compartment. Then, the chamber was disassembled, and the cells on the membrane was fixed and stained with Diff Quik (Sysmex, Kobe, Japan), and mounted on a slide.

B1: gintonin: ginseng-derived glycolipoprotein; structural protein of ginseng major latex-like protein (MLP151) and ribonuclease-like storage proteins; crude gintonin used in tests (protein)
chain 1: MGLTGKLICQTGIKSDGDVFHELFGTRPHHVPNITPANIQGCDLHEGEFGKVGSVVIWNYSIDGNAMIAKEEIVAIDEEDKSVTFKVVEGHLFEEFKSIVFSVHVDTKGEDNLVTWSIDYEKLNESVKDPTSYLDFLLSVTRDIEAHHLPK
chain 2: RSDYPWAMFALRLQWPAGFCEVNNACDTKSLLNTFTIHGLYPYNAKGTPALYCDGTAFDVNSVSDFLAEMHLAWPSHETNTEDIQFWEHEWKKHGRCSEALLKQTDYFRTALAFRKAFDIVGLLNQEGIYPNNDLYRPKMIKEAIKKHLNAVPEIDFTKNENSEYVLTDINVCVNQQATRFVDCPTDDATDDYRLKFVRLPSKMKFADPRTNSII
With B1, the “gintonin-induced intracellular calcium increase vs wild-type” value in assay [1] is reported as “greatly reduced”. Moreover, the latency time with mice (gintonin 25 mg/kg p.o. + scopolamine 0.9 mg/kg i.p.) is 78.24 ± 7.83 s; with mice (gintonin 50 mg/kg p.o. + scopolamine 0.9 mg/kg i.p.), 169.22 ± 12.97 s; in the assay on mice (gintonin 100 mg/kg p.o. + scopolamine 0.9 mg/kg i.p.), 183.43 ± 10.89 s. The “incorporation of Br-DU into DNA” value in the assay with HUVECs [2] is “increase the incorporation of Br-DU into the DNA of HUVECs in a concentration-dependent manner”. In the assay with HUVECs [3], the cell migration result is given as “promoted cell migration in a concentration-dependent manner”.
